Data as given in patent US20240117018A1.

What was measured:
Assay in all cases: cell-based or functional assay
[1] = target: HIV-1 Env pseudovirus 249M B10 (HIV-1)
[2] = target: HIV-1 Env pseudovirus CNE20 (HIV-1)
[3] = target: HIV-1 Env pseudovirus Ce2010_F5 (HIV-1)
[4] = target: HIV-1 Env pseudovirus Ce703010054_2A2 (HIV-1)
[5] = target: HIV-1 Env pseudovirus Du422.1 (HIV-1)
[6] = target: HIV-1 Env pseudovirus HIV-001428-2.42 (HIV-1)
[7] = target: HIV-1 Env pseudovirus WEAU_d15_410_787 (HIV-1)
[8] = target: HIV-1 Env pseudovirus ZM197M.PB7 (HIV-1)
[9] = target: HIV-1 Env pseudovirus ZM247v1(Rev-) (HIV-1)
[10] = target: HIV-1 Env pseudovirus 231965.c01 (HIV-1)
[11] = target: HIV-1 Env pseudovirus 620345.c01 (HIV-1)
[12] = target: HIV-1 Env pseudovirus 6540.v4.c1 (HIV-1)
[13] = target: HIV-1 Env pseudovirus C1080.c03 (HIV-1)
[14] = target: HIV-1 Env pseudovirus T250-4 (HIV-1)
[15] = target: HIV-1 Env pseudovirus T251-18 (HIV-1)
[16] = target: HIV-1 Env pseudovirus X1193_c1 (HIV-1)
[17] = target: HIV-1 Env pseudovirus X1632_S2_B10 (HIV-1)

Substance: N49P7.2 (antibody)
- IC50 [1]: 0.095 µg/mL
- IC80 [1]: 0.349 µg/mL
- MPI [1]: 100
- IC50 [2]: 0.119 µg/mL
- IC80 [2]: 0.574 µg/mL
- MPI [2]: 99
- IC50 [3]: 0.398 µg/mL
- IC80 [3]: 1.29 µg/mL
- MPI [3]: 100
- IC50 [4]: 0.124 µg/mL
- IC80 [4]: 0.576 µg/mL
- MPI [4]: 100
- IC50 [5]: > 50 µg/mL
- IC80 [5]: > 50 µg/mL
- MPI [5]: 22
- IC50 [6]: 0.01 µg/mL
- IC80 [6]: 0.036 µg/mL
- MPI [6]: 100
- IC50 [7]: 0.052 µg/mL
- IC80 [7]: 0.15 µg/mL
- MPI [7]: 100
- IC50 [8]: 0.223 µg/mL
- IC80 [8]: 1.37 µg/mL
- MPI [8]: 100
- IC50 [9]: 0.177 µg/mL
- IC80 [9]: 2.5 µg/mL
- MPI [9]: 96

Substance: N49P11 (antibody)
- IC50 [1]: 3.54 µg/mL
- IC80 [1]: 12.9 µg/mL
- MPI [1]: 100
- IC50 [2]: 5.19 µg/mL
- IC80 [2]: 22.6 µg/mL
- MPI [2]: 100
- IC50 [3]: 0.38 µg/mL
- IC80 [3]: 3.27 µg/mL
- MPI [3]: 100
- IC50 [4]: 1.42 µg/mL
- IC80 [4]: 7.51 µg/mL
- MPI [4]: 100
- IC50 [5]: 8.81 µg/mL
- IC80 [5]: 21.2 µg/mL
- MPI [5]: 100
- IC50 [6]: 0.221 µg/mL
- IC80 [6]: 1.64 µg/mL
- MPI [6]: 100
- IC50 [7]: 1.7 µg/mL
- IC80 [7]: 6.02 µg/mL
- MPI [7]: 100
- IC50 [8]: 0.303 µg/mL
- IC80 [8]: 1.59 µg/mL
- MPI [8]: 100
- IC50 [9]: 7.48 µg/mL
- IC80 [9]: 21.5 µg/mL
- MPI [9]: 100

Substance: N49P18.1 (antibody)
- IC50 [1]: 5.71 µg/mL
- IC80 [1]: 23.1 µg/mL
- MPI [1]: 94
- IC50 [2]: 1.33 µg/mL
- IC80 [2]: 6.36 µg/mL
- MPI [2]: 100
- IC50 [3]: 29 µg/mL
- IC80 [3]: > 50 µg/mL
- MPI [3]: 68
- IC50 [4]: 4.15 µg/mL
- IC80 [4]: 11.6 µg/mL
- MPI [4]: 98
- IC50 [5]: 21.5 µg/mL
- IC80 [5]: > 50 µg/mL
- MPI [5]: 75
- IC50 [6]: 1.13 µg/mL
- IC80 [6]: 8.31 µg/mL
- MPI [6]: 100
- IC50 [7]: 4.27 µg/mL
- IC80 [7]: 15.5 µg/mL
- MPI [7]: 98
- IC50 [8]: 12.5 µg/mL
- IC80 [8]: 49.8 µg/mL
- MPI [8]: 84
- IC50 [9]: 10.9 µg/mL
- IC80 [9]: > 50 µg/mL
- MPI [9]: 79

Substance: VRC01 (antibody)
- IC50 (Titer in TZM.bl cells) [10]: 0.34 µg/mL
- IC80 (Titer in TZM.bl cells) [10]: 1.2 µg/mL
- IC50 (Titer in TZM.bl cells) [1]: 0.13 µg/mL
- IC80 (Titer in TZM.bl cells) [1]: 0.46 µg/mL
- IC50 (Titer in TZM.bl cells) [11]: > 50 µg/mL
- IC80 (Titer in TZM.bl cells) [11]: > 50 µg/mL
- IC50 (Titer in TZM.bl cells) [12]: > 50 µg/mL
- IC80 (Titer in TZM.bl cells) [12]: > 50 µg/mL
- IC50 (Titer in TZM.bl cells) [13]: 3.4 µg/mL
- IC80 (Titer in TZM.bl cells) [13]: 14.4 µg/mL
- IC50 (Titer in TZM.bl cells) [3]: 0.32 µg/mL
- IC80 (Titer in TZM.bl cells) [3]: 1.07 µg/mL
- IC50 (Titer in TZM.bl cells) [4]: 0.53 µg/mL
- IC80 (Titer in TZM.bl cells) [4]: 1.84 µg/mL
- IC50 (Titer in TZM.bl cells) [5]: > 50 µg/mL
- IC80 (Titer in TZM.bl cells) [5]: > 50 µg/mL
- IC50 (Titer in TZM.bl cells) [6]: 0.02 µg/mL
- IC80 (Titer in TZM.bl cells) [6]: 0.06 µg/mL
- IC50 (Titer in TZM.bl cells) [14]: > 50 µg/mL
- IC80 (Titer in TZM.bl cells) [14]: > 50 µg/mL
- IC80 (Titer in TZM.bl cells) [15]: 11.2 µg/mL
- IC50 (Titer in TZM.bl cells) [7]: 0.12 µg/mL
- IC80 (Titer in TZM.bl cells) [7]: 0.26 µg/mL
- IC50 (Titer in TZM.bl cells) [16]: 0.11 µg/mL
- IC80 (Titer in TZM.bl cells) [16]: 0.32 µg/mL
- IC50 (Titer in TZM.bl cells) [17]: 0.12 µg/mL
- IC80 (Titer in TZM.bl cells) [17]: 0.74 µg/mL
- IC50 (Titer in TZM.bl cells) [8]: 0.36 µg/mL
- IC80 (Titer in TZM.bl cells) [8]: 1.6 µg/mL
- IC50 (Titer in TZM.bl cells) [9]: 0.35 µg/mL
- IC80 (Titer in TZM.bl cells) [9]: 1.29 µg/mL
